Experiments:
HLA-A*69:01 [1] = assay: IEDB peptide-MHC binding, purified MHC/direct/fluorescence; filed as Kd, often an IC50 or EC50 that approximates it; ≥ and ≤ were set here for values at or beyond the usual limits of such assays; conditions: source organism: Coxiella burnetii Q321
HLA-B*57:01 [2] = assay: as above; conditions: source organism: Coxiella burnetii Q321
HLA-B*18:01 [3] = assay: as above; conditions: source organism: Coxiella burnetii Q321
HLA-C*07:02 = assay: as above; conditions: source organism: Coxiella burnetii RSA 493
HLA-A*29:02 [4] = assay: as above; conditions: source organism: Coxiella burnetii Q321
HLA-A*03:01 [5] = assay: as above; conditions: source organism: Coxiella burnetii Q321
HLA-A*26:01 [6] = assay: as above; conditions: source organism: Coxiella burnetii Q321
HLA-B*27:20 = assay: IEDB peptide-MHC binding, purified MHC/competitive/fluorescence; filed as Kd, often an IC50 or EC50 that approximates it; ≥ and ≤ were set here for values at or beyond the usual limits of such assays; conditions: source organism: Coxiella burnetii RSA 493
HLA-B*15:42 = assay: as above; conditions: source organism: Coxiella burnetii RSA 493
HLA-B*83:01 = assay: as above; conditions: source organism: Coxiella burnetii RSA 493
HLA-B*45:06 = assay: as above; conditions: source organism: Coxiella burnetii RSA 493
HLA-C*06:02 = assay: as above; conditions: source organism: Coxiella burnetii RSA 493
HLA-C*14:02 = assay: as above; conditions: source organism: Coxiella burnetii RSA 493
HLA-C*08:02 = assay: IEDB peptide-MHC binding, purified MHC/direct/fluorescence; filed as Kd, often an IC50 or EC50 that approximates it; ≥ and ≤ were set here for values at or beyond the usual limits of such assays; conditions: source organism: Burkholderia mallei SAVP1
HLA-A*69:01 [7] = assay: IEDB peptide-MHC binding, purified MHC/competitive/fluorescence; filed as Kd, often an IC50 or EC50 that approximates it; ≥ and ≤ were set here for values at or beyond the usual limits of such assays; conditions: source organism: Burkholderia mallei SAVP1
HLA-B*15:17 = assay: as above; conditions: source organism: Burkholderia mallei SAVP1
HLA-A*02:11 = assay: as above; conditions: source organism: Burkholderia mallei SAVP1
HLA-B*57:01 [8] = assay: as above; conditions: source organism: Burkholderia mallei SAVP1
HLA-B*18:01 [9] = assay: as above; conditions: source organism: Burkholderia mallei SAVP1
HLA-B*27:03 = assay: as above; conditions: source organism: Burkholderia mallei SAVP1
HLA-B*46:01 = assay: as above; conditions: source organism: Burkholderia mallei SAVP1
HLA-B*51:01 = assay: as above; conditions: source organism: Burkholderia mallei SAVP1
HLA-A*29:02 [10] = assay: as above; conditions: source organism: Burkholderia mallei SAVP1
HLA-A*68:02 = assay: as above; conditions: source organism: Burkholderia mallei SAVP1
HLA-A*03:01 [11] = assay: as above; conditions: source organism: Burkholderia mallei SAVP1
HLA-A*02:01 [12] = assay: as above; conditions: source organism: Burkholderia mallei SAVP1
HLA-A*26:01 [13] = assay: as above; conditions: source organism: Burkholderia mallei SAVP1
HLA-A*02:01 [14] = assay: IEDB peptide-MHC binding, binding assay; filed as Kd, often an IC50 or EC50 that approximates it; ≥ and ≤ were set here for values at or beyond the usual limits of such assays; conditions: source organism: Severe acute respiratory syndrome coronavirus 2 Indonesia/JI-ITD-12202V/2020
HLA-B*73:01 = assay: IEDB peptide-MHC binding, purified MHC/competitive/fluorescence; filed as Kd, often an IC50 or EC50 that approximates it; ≥ and ≤ were set here for values at or beyond the usual limits of such assays; conditions: source organism: Vibrio cholerae V52
HLA-A*02:01 [15] = assay: IEDB peptide-MHC binding, cellular MHC/competitive/fluorescence; ≥ and ≤ were set here for values at or beyond the usual limits of such assays; conditions: source organism: Measles morbillivirus

YRATYSMAL showed a Kd (HLA-A*69:01 [1]) of at least 20 µM, a Kd (HLA-B*57:01 [2]) of at least 20 µM and a Kd (HLA-B*18:01 [3]) of at least 20 µM. It also gave a Kd (HLA-C*07:02) of 0.08 µM, a Kd (HLA-A*29:02 [4]) of at least 20 µM and a Kd (HLA-A*03:01 [5]) of at least 20 µM. It also gave a Kd (HLA-A*26:01 [6]) of at least 20 µM, a Kd (HLA-B*27:20) of 0.0007 µM and a Kd (HLA-B*15:42) of at least 5 µM. The Kd (HLA-B*83:01) was at least 5 µM, the Kd (HLA-B*45:06) was at least 5 µM and the Kd (HLA-C*06:02) was 0.0061 µM. The Kd (HLA-C*14:02) was 0.119 µM.

In the case of RLDARLQVL, the Kd (HLA-C*08:02) is reported as 0.082 µM, the Kd (HLA-A*69:01 [7]) is reported as at least 20 µM and the Kd (HLA-B*15:17) is reported as at least 20 µM. The Kd (HLA-A*02:11) was 0.0011 µM, the Kd (HLA-B*57:01 [8]) was at least 20 µM and the Kd (HLA-B*18:01 [9]) was at least 20 µM. The Kd (HLA-B*27:03) was at least 20 µM, the Kd (HLA-B*46:01) was at least 20 µM and the Kd (HLA-B*51:01) was at least 20 µM. For the same sequence, the Kd (HLA-A*29:02 [10]) was 1.02 µM, the Kd (HLA-A*68:02) was at least 20 µM and the Kd (HLA-A*03:01 [11]) was at least 20 µM. The Kd (HLA-A*02:01 [12]) was 0.0074 µM and the Kd (HLA-A*26:01 [13]) was at least 20 µM.

YLQPRTFLL showed a Kd (HLA-A*02:01 [14]) of 0.075 µM.

NRTQGGLRA showed a Kd (HLA-B*73:01) of 0.136 µM.

QLPEATFMV was tested, and the IC50 (HLA-A*02:01 [15]) was 2 µM.

Reference: the Immune Epitope Database (IEDB)
